PMC12851578
Where “and” joins values, the source holds several entries; their conditions need not be identical. Equal entries are not always repeated.

Molecular target: actin purified from muscle (F-actin) (Bos taurus (ground beef)) (UniProt P68138)
Test: co-sedimentation

Question: For “Lfat1 ABD [change], recombinant (from UniProt Q5ZVQ3 138-355) (domain or fragment)”, which Kd is on record?
Answer: The Kd was 19.1 µM and 16.3 µM and 63.7 µM.
